Holding throughout (assay): BLI (ForteBio), IgG on AHQ sensor, 100 nM TIGIT-his, monovalent, 1:1 model
On the technique in general: In BLI a coated tip is dipped into the sample, and binding shifts an interference pattern.

The target of one experiment is T1, human TIGIT-his protein (human, UniProt Q495A1 22-141).
T1 construct: not shown: his tag
T1 sequence: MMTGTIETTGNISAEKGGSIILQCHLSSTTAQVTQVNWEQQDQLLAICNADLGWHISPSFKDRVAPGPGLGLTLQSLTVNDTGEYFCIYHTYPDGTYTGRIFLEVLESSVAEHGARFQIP
The protocol:
(§1) Biofilm layer optical interference technology (ForteBio) was used to determine the binding and dissociation […] values of the anti-TIGIT monoclonal antibodies obtained in Example 1 to human, cynomolgus monkey and mouse TIGIT. Fortebio affinity measurements were performed according to existing methods (Este, P et al., High throughput solution-based measurement of antibody-antigen affinity and epitope binning. Mabs, 2013.5(2): p 270-8).
(§2) The antibody-loaded sensor was incubated in 100 nM TIGIT-his antigen to the plateau phase, and then the sensor was transferred to an analysis buffer and incubated for at least 2 minutes for measuring dissociation rate. The kinetic analysis was performed using a 1:1 binding model.

The target in experiment [1] is T2, cynomolgus monkey TIGIT-his protein (cynomolgus monkey).
T2 construct: also called Cynomolgus TIGIT-his; not shown: his tag
As for the experimental part:
as §1, §2

For a further experiment, the target named is T3, mouse TIGIT-his protein (mouse, UniProt P86176 29-148).
T3 construct: not shown: his tag
T3 sequence: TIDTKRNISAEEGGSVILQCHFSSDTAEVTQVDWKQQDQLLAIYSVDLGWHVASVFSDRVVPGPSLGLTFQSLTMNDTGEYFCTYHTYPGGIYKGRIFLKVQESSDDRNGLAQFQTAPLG
As for the experimental part:
as §1, §2

What is called Kd is the constant that tells how readily two partners part at equilibrium.

T2 sequence (chain, as listed by the source): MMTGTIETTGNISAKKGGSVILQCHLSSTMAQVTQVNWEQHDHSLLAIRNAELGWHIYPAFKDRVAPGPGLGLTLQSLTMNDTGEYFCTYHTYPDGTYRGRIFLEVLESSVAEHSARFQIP

B1: anti-TIGIT monoclonal antibody 55796-G1 (antibody, V domains shown)
VH: QLQLQESGPGLVKPAETLSLTCTVSGGSISSYDHYWTWIRQPPGKGLEWIGTVYYSGSTFHNPSLKSRVTIPVDTSKNQFSLKLSSVTAADTAVYYCARVGPDVSHPPFDYWGQGTLVTVSS
VL: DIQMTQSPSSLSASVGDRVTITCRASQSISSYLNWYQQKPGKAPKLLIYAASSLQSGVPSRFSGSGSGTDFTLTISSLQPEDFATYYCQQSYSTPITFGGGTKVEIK
notes: Wild-type human IgG1 heavy chain constant region, human kappa light chain constant region
Turning to B1, the Kd with human TIGIT-his protein is 0.199 nM; in experiment [1], 4.72 nM; in the experiment with mouse TIGIT-his protein it was 96 nM.

B2: anti-TIGIT monoclonal antibody 55796-G1LALA (antibody, V domains shown)
VH: QLQLQESGPGLVKPAETLSLTCTVSGGSISSYDHYWTWIRQPPGKGLEWIGTVYYSGSTFHNPSLKSRVTIPVDTSKNQFSLKLSSVTAADTAVYYCARVGPDVSHPPFDYWGQGTLVTVSS
VL: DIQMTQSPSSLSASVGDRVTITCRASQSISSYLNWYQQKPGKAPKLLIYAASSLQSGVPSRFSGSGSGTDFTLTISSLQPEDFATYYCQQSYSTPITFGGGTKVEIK
notes: Human IgG1 heavy chain constant region modified by L234A, L235A; human kappa light chain constant region; HEK293
As to B2, the Kd in the experiment with human TIGIT-his protein stood at 0.21 nM; in experiment [1], 4.9 nM; in the experiment with mouse TIGIT-his protein, 61 nM.
